Laboratory results taken from US20240207464A1 (NIHON MEDI PHYSICS, published 2024).
One block for each binder: values may come before it.

Molecular target: T1, CD20 (human, UniProt P11836 1-297)
T1 construct: whole, on cells; also called CD20 on Ramos tumor sections (CD20-positive human Burkitt lymphoma-derived cell line)
T1 sequence (looked up): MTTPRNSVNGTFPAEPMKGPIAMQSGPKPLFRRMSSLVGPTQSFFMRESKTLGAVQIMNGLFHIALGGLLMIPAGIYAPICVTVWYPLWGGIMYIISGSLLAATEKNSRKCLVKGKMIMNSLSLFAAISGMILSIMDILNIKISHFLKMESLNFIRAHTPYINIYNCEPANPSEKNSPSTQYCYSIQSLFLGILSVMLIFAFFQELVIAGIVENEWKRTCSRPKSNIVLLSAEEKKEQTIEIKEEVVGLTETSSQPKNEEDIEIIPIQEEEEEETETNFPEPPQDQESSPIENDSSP
Assay: in vitro autoradiography on frozen Ramos and CCRF-CEM tumor sections
Description: Ramos cells of a CD20-positive human Burkitt lymphoma-derived cell line purchased from ATCC (American Type Culture Collection), and CCRF-CEM cells of a CD20-negative human acute lymphoblastic leukemia/T lymphocyte-like cell line were administered subcutaneously to the flanks of female BALB/c nu/nu mice (manufactured by Charles River Laboratories Japan, Inc.) at 5×10⁶ cells to prepare tumor-bearing mice. Thereafter, Ramos tumor and CCRF-CEM tumor were excised and embedded in Tissue-Tek O.C.T. Compound (Sakura Finetek Japan Co., Ltd.) to prepare frozen sections. The radioconjugates obtained in Example 1 and Comparative Example 1 were added to 1% bovine serum albumin-containing PBS each at 1 kBq/mL, and Ramos tumor section and CCRF-CEM tumor section were immersed therein. After contacting the sections with the imaging plate, they were read with a scanner-type image analyzer (Typhoon FLA 7000 manufactured by GE Healthcare Japan) to evaluate the level of radioactivity bound to the sections.

- binding result: binds
B1: radioconjugate (Example 3): conjugate with rituximab by using 89Zr-labeled DOTAGA-DBCO (antibody, human IgG1, kappa)
heavy: not shown
light: QIVLSQSPAILSASPGEKVTMTCRASSSVSYIHWFQQKPGSSPKPWIYATSNLASGVPVRFSGSGSGTSYSLTISRVEAEDAATYYCQQWTSNPPTFGGGTKLEIKRTVAAPSVFIFPPSDEQLKSGTASVVCLLNNFYPREAKVQWKVDNALQSGNSQESVTEQDSKDSTYSLSSTLTLSKADYEKHKVYACEVTHQGLSSPVTKSFNRGEC
peptide: not shown
modifications: lysine side chain modified with R1 (crosslinker, bonded to the antibody Fc); disulfide between the two cysteines; N-terminal ethyl azide via diglycolic acid and eight PEGs, clicked to DBCO of the 89Zr-DOTAGA-DBCO complex; Fc region site-specifically modified by the peptide of SEQ ID NO: 17 through the crosslinker on its lysine; the peptide carries 89Zr-chelated DOTAGA-DBCO through a click reaction
notes: also called 89Zr complex-labeled antibody

- binding result: binds
B2: radioconjugate (Comparative Example 2): conjugate with rituximab by using 89Zr-labeled DOTA-DBCO (antibody, human IgG1, kappa)
heavy: not shown
light: B1 light
peptide: not shown
modifications: lysine side chain modified with R1 (crosslinker, bonded to the antibody Fc); disulfide between the two cysteines; N-terminal ethyl azide via diglycolic acid and eight PEGs, clicked to DBCO of the 89Zr-DOTA-DBCO complex; Fc region site-specifically modified by the peptide of SEQ ID NO: 17 through the crosslinker on its lysine; the peptide carries 89Zr-chelated DOTA-DBCO through a click reaction
